According to publication PMC10214761:
pKd: −log10 of the molar value.

Target: IgG1k from human myeloma plasma (IgG1 MC) (human)
Assay: SPR

Work on “human Fcγ receptor IIa (hFcγRIIa) (from UniProt P12318 34-217)” yielded a pKd of 6.51.
Substance “human Fcγ receptor IIb/c (hFcγRIIb/c) (from UniProt P31994 43-217)” has a pKd of 5.47.
